Results on one substance are retold here after patent US20230031280A1, “GLP-2 FUSION POLYPEPTIDES AND USES FOR TREATING AND PREVENTING GASTROINTESTINAL CONDITIONS” (SHIRE-NPS PHARMACEUTICALS, INC., priority 2017, published 2023).

A short description of series [1]: NanoDSF melting temperature / thermal stability. It counts as physicochemical. As to the method: Each of the GLP-2 peptibodies was tested by determining melting temperature with nanodifferential scanning fluorimetry (NanoDSF). NanoDSF is a measurement of protein stability over a range of temperatures, with a temperature ramp employed. The stability of tryptophan is measured by fluorescence, as reflected in a ratio of fluorescence at 350 nm to fluorescence at 330 nm. From the assay, one or more melting temperatures are determined. Because a protein in a certain state is understood to have a melting temperature, the number of melting temperatures observed reflects the number of different states.
(§1) Stability analysis was then performed using SEC-MALS and NanoDSF. For SEC-MALS, a Sepax Zenix C-150 column was used. The mobile phase buffer was 1× PBS with a final concentration of 400 mM NaCl. The flow rate was 0.8 mL per minute. 20 micrograms of total protein was injected. For NanoDSF, 10 microliters of sample was used, without normalization of the samples.
as §1
In general terms: Differential scanning fluorimetry follows unfolding on heating by fluorescence.

The nature of series [2]: Rat pharmacokinetics, subcutaneous dosing. The format is in vivo, Sprague-Dawley rats. To be noted: single dose 1 mg/ml. As to the method: In the rat, four pharmacokinetic parameters were measured for Gattex® (a GLP-2 peptide having the A2G mutation): CL, Vc, Vt and Q. The same pharmacokinetic parameters were also measured for GLP-2 peptibodies A, B, E, J, K, L, M, O and P. The data is shown in Table 5. Male Sprague-Dawley rats (3 animals per group) were injected subcutaneously into the intra-scapular region of the animal. A singles dose of test article was injected at a dose level of 1 mg/ml. The test articles were formulated in PBS pH 7.4 at a concentration of Blood samples were taken 0.083, 0.167, 0.33, 0.5, 1, 2, 6, 24, 48, 72, 120, 168, 240, and 336 hours post dose. Blood samples were collected into heparinized tubes and centrifuged for 5 minutes at 2000 xg within 10 minutes of collection. 100 μL of plasma were transferred to a […] Eppendorf tube containing 2 μL of 50 mM PMSF. After mixing the plasma samples were frozen at −80° C. until analysis. Meso Scale Discovery (MSD) ELISA was undertaken to assay for the concentration of the GLP-2 peptibodies.
A sandwich immunoassay was developed using either an anti-Human IgG1 Fc antibody or an anti-human albumin antibody for capture of the peptibody and a sulfotag labeled anti GLP-2 antibody for detection.

Series [3] in a line: SEC-MALS (Sepax Zenix C-150) peak distribution. The format is physicochemical. As to the method:
A SEC-MALS assay was performed to determine the primary state (main peak) and its molecular weight. […] The GLP-2 peptibody O (albumin fusion) eluted at a molecular weight indicative of a monomer.
as §1, §1

The target in series [4] is T1, hFcRn (extracellular domain of the FcRN) (Homo sapiens, UniProt P55899).
T1 construct: made in house
The series can be described thus: FcRn binding by surface plasmon resonance (Biacore). The text has this: Binding to the Fc neonatal receptor (FcRN) allows for recycling of the molecules and leads to an extended in vivo serum half-life of the Fc fusion proteins. Recycling occurs as the molecules are passively taken into the cells and the pH of the endosomes is lower. That leads to binding of the Fc portion of the molecule to the FcRN. When the FcRN recycles back to the surface of the cell, the pH is then neutral and the protein is released back into the serum.
Binding to the extracellular domain of the FcRN was measured by surface plasmon resonance (SPR) using a Biacore system. Direct immobilization with FcRn was achieved via amine coupling of a CM5 chip with FcRn under the following conditions: • i) hFcRn (expressed and purified in house) is diluted in Acetate buffer pH 5.0 to 5 μg/mL. • ii) Immobilize 5 μg/mL of FcRn with target of 500 RU on CM5 chip in PBS pH 7.0 • iii) Final response 454 RU • iv) Running buffer: PBS-P+, pHed to 5.5
The kinetic binding study was done using the following protocol. Samples were diluted in PBS-P+ to 50, 25, 12.5, 6.25, 3.125, 1.56, 0.78, 0.39, 0 nM. The parameters were set as follows: • i) Association and Dissociation 300 s at Flow rate 30 μL/min • ii) Regeneration with 25 mM Tris, 150 mM NaCl pH 8.0 40 s at 60 μL/min
A measurement of the binding of the GLP-2 peptibodies to the Fc neonatal receptor (FcRN) was undertaken at pH 5.5 and pH 7.4.
In general terms: SPR reads the build-up and loss of mass on a sensor chip optically.

A short description of series [5]: Projection of intravenous and subcutaneous PK parameters for humans. Further details: species or system human. How it is done:
While a dose of 30 μg/kg once weekly (QW) is projected from the cynomolgus monkey PK data, the dose should be ten times higher (300 μg/kg) to adjust for the difference in in vivo potency.

A further series deals with T2, human GLP-2R (Homo sapiens, UniProt O95838).
T2 construct: host or cells: CHO-K1
T2 sequence (O95838 1-553): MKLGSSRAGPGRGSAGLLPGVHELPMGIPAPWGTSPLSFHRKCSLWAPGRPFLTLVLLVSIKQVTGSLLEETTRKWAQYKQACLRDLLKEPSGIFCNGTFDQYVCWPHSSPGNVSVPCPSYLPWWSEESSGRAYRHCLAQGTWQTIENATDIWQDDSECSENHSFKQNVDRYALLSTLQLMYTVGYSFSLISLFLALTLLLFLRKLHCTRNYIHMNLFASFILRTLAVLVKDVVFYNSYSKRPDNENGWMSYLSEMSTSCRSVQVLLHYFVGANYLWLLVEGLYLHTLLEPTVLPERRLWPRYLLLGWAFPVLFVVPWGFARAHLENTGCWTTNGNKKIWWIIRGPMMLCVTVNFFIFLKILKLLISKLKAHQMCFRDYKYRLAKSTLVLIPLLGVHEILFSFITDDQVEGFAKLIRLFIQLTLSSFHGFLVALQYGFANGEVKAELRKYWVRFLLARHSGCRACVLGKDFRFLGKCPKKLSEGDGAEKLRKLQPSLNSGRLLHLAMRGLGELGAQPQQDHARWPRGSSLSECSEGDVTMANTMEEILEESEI
The series can be described thus: cAMP Hunter eXpress GLP2R CHO-K1 GPCR assay. It counts as cell-based. As to the method:
The cAMP Hunter™ assay is based on enzyme fragment complementation (EFC). In EFC assay, the enzyme donor is fused to cAMP. Increased intracellular cAMP due to GLP2R activation competes with ED-cAMP for antibody. Unbound ED-cAMP complements the enzyme acceptor to form active beta galactosidase, which subsequently produces a luminescent signal.
The CHO-K1 cell line used is overexpressing human GLP-2R (Genbank accession number NM004246.1). […] Their activities were assayed via measurement of the concentration of cAMP in the media.

T1 sequence (P55899 24-297 limits assumed): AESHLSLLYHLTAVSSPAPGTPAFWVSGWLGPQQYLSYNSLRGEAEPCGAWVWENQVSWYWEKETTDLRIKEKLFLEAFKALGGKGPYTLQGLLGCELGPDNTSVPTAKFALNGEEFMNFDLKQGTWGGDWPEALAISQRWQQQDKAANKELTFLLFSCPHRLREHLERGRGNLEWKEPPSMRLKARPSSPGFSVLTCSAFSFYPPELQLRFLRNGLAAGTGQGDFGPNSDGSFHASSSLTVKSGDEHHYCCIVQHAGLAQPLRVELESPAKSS
T1 sequence (P61769 21-119 partner): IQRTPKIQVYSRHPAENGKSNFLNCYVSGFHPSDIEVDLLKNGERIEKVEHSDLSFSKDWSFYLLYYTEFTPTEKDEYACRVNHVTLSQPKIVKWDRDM

On to “GLP-2 peptibody K: GLP-2[A2G]-GGGGSGGGGSGGGGS linker-IgG1 Fc (LALA) with C-terminal lysine; SEQ ID NO: 10”, for which the “NanoDSF melting temperature 1” value in series [1] (first transition) was 1 = 67.5 °C. Further, the “NanoDSF melting temperature 2” value in series [1] (second transition) is 2 = 79.7 °C. For the same substance, in series [2], the CL was determined as 2.83 mL/h/kg, the Vc was 0.114 L/kg and the ka entry was “K (0.62 ka/day,”. Moreover, in series [3], the “SEC-MALS Zenix C-150 main peak” value is given as 80.2% main peak, 149,900 g/mol. Further, in series [4] (pH 5.5), the affinity, expressed as Kd, was 1.95 nM. In addition, in series [4] (pH 7.4), the “FcRN KD at pH 7.4” value is “No binding in range tested”. In series [5], this substance gave a Vc of 0.0385 L/kg, a Vt of 0.0361 L/kg and a ka of 1.40 day⁻¹. Moreover, the “CL (value in parentheses)” value in series [5] (exponent on CL 0.85, monkey 3.5 kg, human 70 kg) stood at 0.642 mL/h/kg. In series [5] (first value of cell), this substance registered a CL of 1.01 mL/h/kg, an F of 86% and a Q of 2.35 mL/h/kg. Moreover, in series [5] (value in parentheses), the “F (value in parentheses)” value is reported as 60% and the “Q (value in parentheses)” value was 1.5 mL/h/kg. Further, the “reduction of activity vs GLP-2[A2G]” value with human GLP-2R was “about five-fold”.
